The text below walks through data of PMC5620376.

Assay in all cases: pull-down
One test concerns the target T1, GST-Bet1 (yeast).
T1 sequence (P22804 whole entry, looked up): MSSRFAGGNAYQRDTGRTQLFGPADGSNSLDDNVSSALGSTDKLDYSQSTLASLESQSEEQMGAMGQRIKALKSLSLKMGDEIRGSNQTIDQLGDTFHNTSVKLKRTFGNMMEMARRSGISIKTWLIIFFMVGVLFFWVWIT

A further test concerns the target T2, GST-Gos1 (yeast).
T2 sequence (P38736 whole entry, looked up): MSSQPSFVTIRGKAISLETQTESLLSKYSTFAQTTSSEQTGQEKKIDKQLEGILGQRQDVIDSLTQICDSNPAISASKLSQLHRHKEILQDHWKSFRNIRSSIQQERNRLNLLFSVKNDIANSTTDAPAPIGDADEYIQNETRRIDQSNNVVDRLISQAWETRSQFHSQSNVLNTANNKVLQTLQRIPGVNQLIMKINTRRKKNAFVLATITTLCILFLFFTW

For another test, the target named is GST-Sed5 (yeast).
GST-Sed5 (yeast), sequence (Q01590 whole entry): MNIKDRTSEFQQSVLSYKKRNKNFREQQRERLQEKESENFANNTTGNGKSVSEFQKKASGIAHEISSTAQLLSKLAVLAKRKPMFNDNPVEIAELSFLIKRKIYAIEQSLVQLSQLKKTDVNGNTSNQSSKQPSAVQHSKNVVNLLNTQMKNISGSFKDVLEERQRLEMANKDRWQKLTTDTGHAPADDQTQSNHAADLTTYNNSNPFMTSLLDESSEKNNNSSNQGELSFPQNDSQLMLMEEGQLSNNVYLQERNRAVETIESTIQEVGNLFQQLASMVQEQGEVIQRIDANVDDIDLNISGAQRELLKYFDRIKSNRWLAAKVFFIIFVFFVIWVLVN
The target in another test is T3, GST-Sft1 (yeast).
T3 sequence (P43682 whole entry, looked up): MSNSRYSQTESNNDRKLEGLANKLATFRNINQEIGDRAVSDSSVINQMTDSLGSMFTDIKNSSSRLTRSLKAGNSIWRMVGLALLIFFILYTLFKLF

A further test addresses T4, GST-Ykt6 (yeast).
T4 sequence (P36015 whole entry, looked up): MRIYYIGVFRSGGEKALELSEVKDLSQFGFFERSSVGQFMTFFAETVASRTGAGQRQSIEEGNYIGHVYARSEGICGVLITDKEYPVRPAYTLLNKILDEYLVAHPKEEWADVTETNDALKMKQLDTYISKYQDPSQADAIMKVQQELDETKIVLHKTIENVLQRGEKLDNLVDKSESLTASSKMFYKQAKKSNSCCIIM

A further test deals with GST.

B1: Coy1ΔTM-HA (domain or fragment)
chain: MDTSVYSHALDIWAKADLTNLQRELDADVIEIKDKETLSLNSRKSLATETKKFKKLEPEEKLNNVNKIIKQYQREIDNLTQRSKFSEKVLFDVYEKLSEAPDPQPLLQSSLEKLGKIDDSKELKEKISYLEDKLAKYADYETLKSRLLDLEQSSAKTLAKRLTAKTQEINSTWEEKGRNWKEREADLLKQLTNVQEQNKALEAKISKNIDIEGNGNEDGDQENNQKEVSTRIAEYNLVTQELETTQARIYQLEKRNEELSGALAKATSEAEKETELHAKELKLNQLESENALLSASYEQERKSTSHAINELKEQLNSVVAESESYKSELETVRRKLNNYSDYNKIKEELSALKKIEFGVNEDDSDNDIRSEDKNDNTFESSLLSANKKLQATLAEYRSKSTAQEEERNELKKSVDQLKQQIATLKEANEKLETDLEKVENVSPHFNETASMMSGVTRQMNNRTSHKMSPTSSIIGIPEDGELSGNQSTILPIVTKQRDRFRSRNMDLEKQLRQGNSEKGKLKLEISKLKGDNTKLYERIRYLQSYNNNNAPVNQSTERIDVESQYSRVYDESLHPMANFRQNELNHYKNKKLSALEKLFSSFAKVILQNKMTR
Take B1: the percent of input recovered with GST-Bet1 (yeast) is < 1%; in the test with GST-Gos1 (yeast), 15%; with GST-Sed5 (yeast) it was 15%; with GST-Sft1 (yeast) it was 15%; with GST-Ykt6 (yeast), < 1%; with GST it was < 1%.
